The source of these data is the Human Domainome abundance scans (Beltran et al. 2025).

B1: Poly(rC)-binding protein 1, residues 278 to 350; numbered along this chain, Q15365 (parent)
chain: TQTTHELTIPNNLIGCIIGRQGANINEIRQMSGAQIKIANPVEGSSGRQVTITGSAASISLAQYLINARLSSE
B2: Membrane-associated guanylate kinase, WW and PDZ domain-containing protein 2, residues 296 to 340; numbered along this chain, Q86UL8 (parent)
chain: EDNEEPDPLPDNWEMAYTEKGEVYFIDHNTKTTSWLDPRLAKKAK

± gives the uncertainty stated by the source.

In the first data set the parent is B1. The data set is described as follows: abundance fitness (aPCA) (normalised: wild type 0, dead -1); higher = more abundant; growth selection in yeast, the domain comes from the species named. The following applies: Homo sapiens.
For the variant A68E, the abundance fitness was 0.21 ± 0.081.
Still for that read-out and setting: the same measure for A68L: -0.206 ± 0.084.
Regarding A68S, the abundance fitness came to 0.048 ± 0.078.
Same read-out and setting: under A68G stands -0.122 ± 0.056; under A68I, -0.296 ± 0.21; under A68M, -0.032 ± 0.1.
With A68F, the abundance fitness was -0.459 ± 0.35.
On the same count and under the same terms, under A68Q stands 0.14 ± 0.11; under A68H, 0.188 ± 0.2.
Still for that read-out and setting: under A68V stands -0.185 ± 0.07; under A68R, -0.001 ± 0.061.
Still for that read-out and setting: the same measure for A68N: 0.163 ± 0.14; for A68C: 0.271 ± 0.14.
Consider A68W, for which the abundance fitness is -0.581 ± 0.17.
Still for that read-out and setting: under L65W stands -0.166 ± 0.066; under L65S, -0.582 ± 0.13.
Still for that read-out and setting: under L65P stands -0.779 ± 0.25; under L65M, -0.36 ± 0.18; under L65R, -0.689 ± 0.1.
Take L65Q: the abundance fitness is -0.442 ± 0.14.
Still for that read-out and setting: the same measure for L65V: -0.789 ± 0.18; for L65Y: -0.093 ± 0.13; for L65T: -0.462 ± 0.14.
The same measure, in the same setting: under L70K stands -0.378 ± 0.46; under L70M, -0.228 ± 0.26; under L70I, -0.217 ± 0.36.
Same read-out and setting: the same measure for L70W: -0.521 ± 0.29; for L70R: -0.53 ± 0.22.
In the case of L70P, the abundance fitness is -0.499 ± 0.25.
On the same count and under the same terms, under L70N stands -0.465 ± 0.48.
Consider L70V, for which the abundance fitness is -0.05 ± 0.15.
Consider L70S, for which the abundance fitness is -0.614 ± 0.34.
For the variant R69M, the abundance fitness is -0.414 ± 0.21.
Same read-out and setting: under R69G stands -0.626 ± 0.14; under R69L, -0.328 ± 0.11.
For R69H, the abundance fitness was -0.405 ± 0.17.
Same read-out and setting: the same measure for R69Q: -0.016 ± 0.18.
For the variant R69S, the abundance fitness was -0.081 ± 0.096.
On the same count and under the same terms, the same measure for R69F: 0.355 ± 0.26; for R69A: -0.067 ± 0.1; for R69V: -0.479 ± 0.14.
Same read-out and setting: the same measure for R69C: -0.344 ± 0.18; for R69I: -0.258 ± 0.24.
On to R69P, for which the abundance fitness is -0.701 ± 0.22.
The same measure, in the same setting: under R69T stands -0.079 ± 0.093; under R69W, -0.596 ± 0.18; under R69K, 0.119 ± 0.12.
Same read-out and setting: the same measure for R69E: -0.371 ± 0.16; for N67Q: -0.32 ± 0.11.
Same read-out and setting: the same measure for N67T: -0.148 ± 0.12; for N67V: -0.504 ± 0.11; for N67K: -0.137 ± 0.12.
Consider N67E, for which the abundance fitness was -0.082 ± 0.075.
Same read-out and setting: under N67G stands -0.082 ± 0.051.
Still for that read-out and setting: the same measure for N67P: -0.782 ± 0.26; for N67F: 0.034 ± 0.18.
Still for that read-out and setting: the same measure for N67A: -0.152 ± 0.079; for N67D: 0.066 ± 0.099; for N67M: -0.135 ± 0.089.
For N67S, the abundance fitness is -0.019 ± 0.072.
As to N67I, the abundance fitness is -0.194 ± 0.22.
Still for that read-out and setting: under N67R stands -0.147 ± 0.057.
Same read-out and setting: the same measure for N67L: -0.18 ± 0.079; for N67C: -0.193 ± 0.26.
The same measure, in the same setting: under N67Y stands 0.002 ± 0.13; under N67W, -0.208 ± 0.078; under N67H, -0.146 ± 0.13.
In the case of S72I, the abundance fitness was -0.448 ± 0.39.
On the same count and under the same terms, the same measure for S72D: -0.107 ± 0.25; for S72C: -0.052 ± 0.16; for S72V: -0.072 ± 0.094.
S72G: the abundance fitness was -0.031 ± 0.071.
The same measure, in the same setting: the same measure for S72R: 0.123 ± 0.077; for S72A: -0.039 ± 0.093; for S72K: -0.072 ± 0.22.
Still for that read-out and setting: the same measure for S72Q: -0.401 ± 0.26; for S72M: -0.058 ± 0.13.
With S72P, the abundance fitness is -0.562 ± 0.38.
The same measure, in the same setting: the same measure for S72E: 0.222 ± 0.11; for S72L: -0.114 ± 0.088.
Consider S72N, for which the abundance fitness is 0.161 ± 0.23.
Turning to S72T, the abundance fitness was 0.222 ± 0.087.
With S72Y, the abundance fitness was -0.152 ± 0.28.
On the same count and under the same terms, the same measure for S72H: -0.07 ± 0.2.
Regarding E73P, the abundance fitness is -0.161 ± 0.41.
Regarding E73D, the abundance fitness worked out at 0.212 ± 0.2.
The same measure, in the same setting: under E73W stands -0.325 ± 0.45; under E73S, 0.302 ± 0.21; under E73R, -0.019 ± 0.12.
Still for that read-out and setting: the same measure for E73V: 0.182 ± 0.17; for E73G: -0.016 ± 0.1.
Consider E73F, for which the abundance fitness amounted to 0.315 ± 0.48.
Still for that read-out and setting: under E73C stands -0.14 ± 0.17.
On the same count and under the same terms, the same measure for E73T: -0.03 ± 0.29; for E73L: -0.004 ± 0.19; for E73A: 0.078 ± 0.42.
Same read-out and setting: under E73M stands 0.245 ± 0.17; under S71W, -0.195 ± 0.075; under S71V, -0.14 ± 0.061.
As for S71A, the abundance fitness is -0.037 ± 0.051.
Still for that read-out and setting: the same measure for S71K: -0.03 ± 0.09; for S71R: -0.056 ± 0.041.
Turning to S71I, the abundance fitness is -0.434 ± 0.24.
The same measure, in the same setting: under S71P stands 0.024 ± 0.06.
On the same count and under the same terms, the same measure for S71G: -0.062 ± 0.049; for S71L: -0.184 ± 0.054; for S71H: -0.371 ± 0.28.
Same read-out and setting: under S71T stands -0.092 ± 0.068; under S71M, 0.105 ± 0.074.
In the case of S71Q, the abundance fitness is -0.194 ± 0.11.
Same read-out and setting: under S71D stands -0.044 ± 0.1; under S71F, -0.21 ± 0.14; under S71Y, -0.258 ± 0.14.
On the same count and under the same terms, the same measure for I66V: -0.285 ± 0.1; for I66A: -0.438 ± 0.1; for I66F: -0.414 ± 0.22.
On the same count and under the same terms, the same measure for I66G: -0.594 ± 0.13; for I66W: -1.2 ± 0.35.
In the case of I66R, the abundance fitness was -0.996 ± 0.23.
Same read-out and setting: the same measure for I66C: -0.188 ± 0.2.
Same read-out and setting: under I66L stands -0.076 ± 0.13; under I66P, -0.459 ± 0.15.
Still for that read-out and setting: under I66M stands -0.094 ± 0.16; under I66S, -0.721 ± 0.2; under I66Q, -1.16 ± 0.46.
Turning to I66H, the abundance fitness came to 0.299 ± 0.49.

In another data set the parent is B2. The description is as above. The following applies: Homo sapiens.
In the case of D2W, the abundance fitness was -0.029 ± 0.064.
Regarding D2L, the abundance fitness came to 0.072 ± 0.064.
Same read-out and setting: the same measure for D2K: 0.116 ± 0.066; for D2V: 0.074 ± 0.05; for D2S: 0.068 ± 0.07.
Still for that read-out and setting: the same measure for D2A: 0.125 ± 0.071; for D2Y: 0.063 ± 0.4.
Still for that read-out and setting: the same measure for D2N: 0.072 ± 0.053.
On to D2Q, for which the abundance fitness was 0.08 ± 0.14.
Same read-out and setting: the same measure for D2R: 0.05 ± 0.054.
The same measure, in the same setting: the same measure for D2C: 0.256 ± 0.12; for D2E: -0.131 ± 0.15.
Same read-out and setting: the same measure for D2P: -0.01 ± 0.11.
On to E1K, for which the abundance fitness turned out to be 0.058 ± 0.079.
The same measure, in the same setting: under E1M stands -0.067 ± 0.07.
The same measure, in the same setting: the same measure for E1S: -0.154 ± 0.082; for E1R: 0.128 ± 0.063.
The same measure, in the same setting: under E1Y stands 0.094 ± 0.12; under E1I, -1.23 ± 0.15; under E1L, -0.023 ± 0.077.
As for E1P, the abundance fitness is 0 ± 0.11.
On the same count and under the same terms, under E1G stands 0.009 ± 0.048.
With E1V, the abundance fitness stood at 0.035 ± 0.046.
Same read-out and setting: under E1H stands -0.109 ± 0.31; under N3Q, 0.055 ± 0.06; under N3V, -0.042 ± 0.052.
The same measure, in the same setting: the same measure for N3Y: 0.037 ± 0.08; for N3C: -0.031 ± 0.2; for N3M: 0.083 ± 0.055.
Same read-out and setting: the same measure for N3E: -0.173 ± 0.048; for N3P: -0.109 ± 0.092.
For N3D, the abundance fitness was -0.258 ± 0.061.
The same measure, in the same setting: under N3S stands 0.021 ± 0.049; under N3R, 0.157 ± 0.053; under N3G, -0.081 ± 0.059.
Regarding N3W, the abundance fitness was 0.059 ± 0.055.
Still for that read-out and setting: the same measure for N3F: -0.029 ± 0.41; for N3H: 0.058 ± 0.097; for N3L: 0.009 ± 0.045.
On the same count and under the same terms, the same measure for N3A: -0.099 ± 0.059.
As to E4A, the abundance fitness amounted to 0.016 ± 0.056.
